# Results: patent publication US6548639 (BIOSTAPRO, dated 2003)
# Target: T1, MAL-Sbi (aa 33-436, SEQ ID NO:3) (Staphylococcus aureus strain 8325-4, UniProt A6QJQ7 33-436)
# T1 construct: Expressed in E. coli from pMAL-c2 (BamHI-SalI insert), purified on amylose resin and then on IgG-Sepharose; also called MAL-fusion of protein Sbi; mature full length protein; not shown: its limits and the v
# Test: blot of the purified proteins overlaid with MAL-Sbi, detected with HRP-labelled chicken anti-Sbi
binder,measurement,value
"bovine apolipoprotein H (other, mature; Serum protein; also called β2-glycoprotein I) GRTCPKPDELPFSTVVPLKRTYEPGEQIVFSCQPGYVSRGGIRRFTCPLTGLWPINTLKCMPRVCPFAGILENGTVRYTTFEYPNTISFSCHTGFYLKGASSAKCTEEGKWSPDLPVCAPITCPPPPIPKFASLSVYKPLAGNNSFYGSKAVFKCLPHHAMFGNDTVTCTEHGNWTQLPECREVRCPFPSRPDNGFVNHPANPVLYYKDTATFGCHETYSLDGPEEVECSKFGNWSAQPSCKASCKLSIKRATVIYEGERVAIQNKFKNGMLHGQKVSFFCKHKEKKCSYTEDAQCIDGTIEIPKCFKEHSSLAFWKTDASDVKPC",binding result,binds
